Assay results from the supplement of paper PMC9170038.

Test system: MS2 coat protein
Test: apparent KD of MS2 coat protein; designed switch direction (-1 OFF switch, 1 ON switch): 1; higher = weaker reporter binding
Procedure, shortened: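 Normalised cluster fluorescence was curve-fitted, and each design's median over clusters is its apparent KD. Before this, SNAP-549-labelled MS2 coat protein was titrated from 0.7 or 1.5 nM, doubling to 3 µM, over RNA switches transcribed on Illumina chips by stalled E. coli RNA polymerase. Titrations had no input, 200 uM small-molecule ligand, or an oligonucleotide input, and steps lasted 0.8–1.5 h (lowest) to 10–20 min (highest).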

[1] = Eterna round: R95, input ligand: FMN 200 uM
[2] = Eterna round: R95, input ligand: microRNA oligo, concentration not stated
[3] = Eterna round: R95, input ligand: none
[4] = input ligand: microRNA oligo, concentration not stated

| Sequence | apparent KD of MS2 coat protein [1] | apparent KD of MS2 coat protein [2] | apparent KD of MS2 coat protein [3] | apparent KD of MS2 coat protein (input ligand: FMN 200 uM) | apparent KD of MS2 coat protein [4] | apparent KD of MS2 coat protein (input ligand: none) |
| --- | --- | --- | --- | --- | --- | --- |
| UGGAUCUAGGCUUGCCUGGGUCCAUGUUGACAUGAGGAUCACCCAUGUGUAUUUUUUUAGCUUUUUGUUUGUCAACU [JL A Humble Attempt mod 10] (puzzle: Sensor for hsa-mir-208a) | 26.2 nM | 13 nM | 25.5 nM | – | – | – |
| UACAAUCUAUCUGAGGAUAUCAUGAAUAAAACAUGAGGAUCACCCAUGUGCAGGAAAACUGCAUAUGAGAAGGCAGAUAGAUUGA [Mat - Same State 2 - Mod - D12] (puzzle: Same State 2) | 45.9 nM | 411 nM | 1450 nM | – | – | – |
| UGGCUCAGACUAGGAUAUAUGUGGUCACAUGAGGAUCACCCAUGUCUCGAGCUUCGGCUCGAGGCAUAGAAGGAGUCUGAGCCA [SSNG2/5-D2] (Eterna round: R96, puzzle: Same State NG 2) | – | – | – | 1540 nM | 329 nM | 26.5 nM |
| UGUCCAGCCUGAGCUGGACAAAAGCAUGUACAUGAGGAUCACCCAUGUUCAUGUACAAGCUUUUUGCUCGUCUUACU [salish99_208a_r3_081] (puzzle: Sensor for hsa-mir-208a) | 360 nM | 14.1 nM | 471 nM | – | – | – |
| UUGCGGGAUUGAGGAUAUUGAGUACAUAUGUUUAACAUGAGGAUCACCCAUGUGGGUUGCGGUAUCGAGAAGGUAACUUACUAC [salish99_SSNG2_r04_805] (Eterna round: R96, puzzle: Same State NG 2) | – | – | – | – | 75.5 nM | – |
| UCUUGGUUUUUGCUCGUUUUUUGUGUUGAACAUGAGGAUCACCCAUGUAUUGUACAGUCCGGUUUGAUGAUGGUCCG [JMF 59] (puzzle: Sensor for hsa-mir-208a) | 32.1 nM | 25.6 nM | 33.4 nM | – | – | – |
| GGAGCCGGCACCGAGGAUAUUCAUAUUAAAACAUGAGGAUCACCCAUGUGGGCCAGAAGGCCUUGGGAGAAGGCGGAUCGGCUCG [Xeonanis - 1] (Eterna round: R96, puzzle: Same State 2) | – | – | – | 18.6 nM | 141 nM | 314 nM |
| AGCUAUUACGAAGGAUAUUGUGACAUGAGGAUCACCCAUGUUUUCAUGAUUAAUUGUGAUCACGUCGAGAAGGUUGUACUAACA [SameState NG2 #30] (Eterna round: R96, puzzle: Same State NG 2) | – | – | – | – | 43 nM | – |
| AGUCCAGCCUGAGCUGGACAAAAGCAUGUACAUGAGGAUCACCCAUGUCAUGUACAAGCUUUUUGCUCGUCUUAAGA [Mat - hsa-mir-208a - Mod of JL - D21] (Eterna round: R96, puzzle: Sensor for hsa-mir-208a) | – | – | – | 806 nM | 16.2 nM | 840 nM |
| GCUCGACGUAUUGUCUACAUGAGGAUCACCCAUGUAGGUGCGGAGGAUAUUUACGUGUUUCAUGUAGAGAAGGUCGUGUCGAGC [SameState NG3 #94] (Eterna round: R96, puzzle: Same State NG 3) | – | – | – | 27.8 nM | 166 nM | 185 nM |
| ACAUGAGAGAAAGGAUAUCUUGUACCUACAUGUGACAUGAGGAUCACCCAUGUGGUAAGUAUGAGAGAGAAGGUUCAGAUAUGU [Equivalence 33 - Jieux - Same State NG 2] (Eterna round: R96, puzzle: Same State NG 2) | – | – | – | 15.9 nM | 25.8 nM | 29.8 nM |
| GUAAAACAUGAGGAUCACCCAUGUCAACAAAGUCGAGGAUAUGGGCAUAUAUUAUAUGAACCAGAAGGCGAAUAUG [Mat - Same State 1 - Mod of UCT - D27] (puzzle: Same State 1) | 14.6 nM | 43.1 nM | 33.9 nM | – | – | – |
| GUUACAUGAGGAUCACCCAUGUAUGUGUGGGAGUAAGUGUCUUAGGAUAUCUAUCAGUUAAUUUAAGAGAAGGAAGAUUGUUGU [JMF's solution 90] (Eterna round: R96, puzzle: Same State NG 3) | – | – | – | 126 nM | 111 nM | 115 nM |
| AAAGGCAUGGCACAGGAUAUGCAAUAAAAGACAUGAGGAUCACCCAUGUACCCGAGAAACGGGCAGCAGAAGGGUGUAAAAGAAA [Orrere] (puzzle: Same State 2) | 134 nM | 115 nM | 447 nM | – | – | – |
| AGCGAGAUAGGCGAGGAUAUGCUUUUUUGCACAUGAGGAUCACCCAUGUCUUUGUUUUUUGUUUUGCAGAAGGCGCAUUCUCUUU [ak unbound state multiloop] (puzzle: Same State 2) | 32.7 nM | 14.3 nM | 12.7 nM | – | – | – |
| GUUACAUGAGGAUCACCCAUGUAUGUGUGGGAGUAAGUGUCUUAGGAUAUCUAGAAUUUAAUUUAAGAGAAGGAAGAUUGUUGU [JMF's solution 49] (Eterna round: R96, puzzle: Same State NG 3) | – | – | – | 104 nM | 61 nM | 83 nM |
